This passage reports amyloid nucleation score results from the supplement of paper PMC12042874.

± gives the uncertainty stated by the source.

The nature of this series: amyloid nucleation score (Sup35N fusion, yeast selection) (log enrichment); library NNK1; higher = more nucleation; inactive = no reads after selection. Put shortly:
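Output and input plasmid inserts were sequenced by Illumina after psi-negative yeast carrying Sup35N fused to peptides of 20 random codons had been induced 24 hours with 100 μM copper sulfate and grown 7 days at 30°C on medium lacking adenine and uracil. The nucleation score is the DiMSum log enrichment of output over input reads, centred on the mode score of non-aggregating sequences. Sequences with under 100 input reads were excluded.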
QLRAYEFGWETREELNSRPY came in with an amyloid nucleation score of -1.64 ± 2.4. The same measure for SSITVITVATQVEYNTVHDF: 1.37 ± 0.45. Regarding ISGIECQYTNGRRWGPPS, the amyloid nucleation score is -0.323 ± 0.81.

The substance AFDGVS registered an amyloid nucleation score of -0.096 ± 1.7.

The substance IYDIEEDLCSVSVSGKESWV returned an amyloid nucleation score of -0.307 ± 0.47. VVHRALLYGNGIVN showed an amyloid nucleation score of 1.4 ± 0.7.

On to KWDLRPYFFLMVLEQGCSMW, for which the amyloid nucleation score was -0.506 ± 1.

In the case of SVGLTFNGGVYCSHVERTSW, the amyloid nucleation score worked out at 1.93 ± 0.19. The same measure for MWNRFWLLDALLWGNYLSQS: 0.043 ± 0.33; for FFVLKGECVGGLMPWTRVTA: -0.24 ± 0.92. As to FMCIPV, the amyloid nucleation score was 0.189 ± 0.55. The same measure for GDTYHNYVWRLDACSTLPWY: -0.547 ± 0.53; for FLNNLAGWGYPCFTGVYANA: -0.195 ± 0.39.

Consider NGWIMRR, for which the amyloid nucleation score was -0.094 ± 1.5. The same measure for RTSPN: -0.141 ± 0.37; for DMNILVLLMGDVVRLATTEW: 2.68 ± 0.17.

In turn, SYGLWHMAM displayed an amyloid nucleation score of -0.232 ± 0.54. The same measure for DSEDVVLQCEWWTRLARIEY: -0.333 ± 0.54; for DAYMMLFLYSPVWECFLMKG: -0.084 ± 0.28; for RWFYSCDVVAFKGH: 0.584 ± 0.84. The same measure for YVSVVCLFVPDKFRNVTDL: 6.87 ± 0.073; for CFRFDYVGTYKHMPFR: 4.02 ± 0.16; for IGDNVNGSLLEIW: -0.528 ± 0.32. As for MIMMDLHCGVILRALGEHGP, the amyloid nucleation score amounted to 3.34 ± 0.11.

As for YDLGMLLF, the amyloid nucleation score came to 0.812 ± 0.77. FLCSIISYS registered an amyloid nucleation score of 5.572 ± 0.048. With TGNTIAVRLLGKTNWTLIKT the figure was -0.1 ± 0.23; with CYKAAQGFIFSRK, 0.482 ± 0.32; with LKYMYHYVSMKVFVLGISMR, 0.005 ± 1.7. With IKWWKLCGVVRIGNNCLRYL the figure was 0.64 ± 0.72; with LFGSEVTWYLTSGCDKPFLH, 0.087 ± 0.48. In turn, GTTSVSAINGR yielded an amyloid nucleation score of -0.545 ± 0.8. Consider APLYLHMWSCYSLMLSPSMG, for which the amyloid nucleation score is -1.5 ± 2.4.

Substance IFLNKRSTSAWFSMLLLFLS returned an amyloid nucleation score of 1.4 ± 0.14.

The substance IMFTWWEYRLRSLEV registered an amyloid nucleation score of -0.334 ± 0.48. With GIGVKSEGHVINDFYKLRER the figure was 0.002 ± 0.45. VAATDWVGNHKS returned an amyloid nucleation score of 1.28 ± 0.55. DNVFEALAL: the amyloid nucleation score entry was “inactive”.

Consider TLLWFNEFILSGPNFRIGVV, for which the amyloid nucleation score turned out to be 0.857 ± 0.58. For the substance LMFKGEYCWLVIWQGLTWGV, the amyloid nucleation score turned out to be 0.278 ± 0.52. The same measure for SDFNLDSSGMKRVKSRV: 0.817 ± 0.69; for VSRPQMSSTTEHSTTDYFGC: “inactive”. In turn, LVENLWTLRRRLVGALF returned an amyloid nucleation score of 0.31 ± 0.4. Take QEGRSFRGYTMVKYVFISRY: the amyloid nucleation score stood at 1.38 ± 0.5. Consider AGMCSIC, for which the amyloid nucleation score was found to be 0.155 ± 0.36. Substance FTAVK displayed an amyloid nucleation score of -0.188 ± 0.46.

Regarding YPVRFHTYVVISTFGEIGFG, the amyloid nucleation score is 0.822 ± 0.43. Consider SNLWFL, for which the amyloid nucleation score is -0.213 ± 0.28. The same measure for DSSRSVFLWTGG: -0.994 ± 1.9. KMVLF came in with an amyloid nucleation score of 0.927 ± 0.49. WPCKAFFSSAGLRYGVNLA had an amyloid nucleation score of -0.833 ± 0.9.

Consider DPEVIGLIVCNM, for which the amyloid nucleation score was -1.16 ± 1. SVLRRQDFTKLLMFRSGPLG gave an amyloid nucleation score of 0.424 ± 0.38.

Regarding LNDGTGDQ, the amyloid nucleation score is -0.138 ± 0.37. The same measure for SWEQMSYASSFISNVGRHKG: 1.34 ± 0.2. With RVRLVWSSCQGDEGFYGLCP the figure was 1.36 ± 0.18. As to MHLCINWSLSCRAADQFMRR, the amyloid nucleation score amounted to 3.53 ± 0.17. With AYNLLYN the figure was 1.59 ± 0.69; with HVNSRRVLSHFVFDCARIGT, 0.592 ± 0.69; with NLCYHWVRNIQNGQRFLCQL, “inactive”. As to RVRILITYM, the amyloid nucleation score amounted to 1.18 ± 0.17.

Consider MKVDNSVLMPATTHQRNMQG, for which the amyloid nucleation score was -0.211 ± 0.67. The same measure for SVFSLVYGKN: 0.685 ± 0.81. With QGSIHY, the amyloid nucleation score entry was “inactive”. For GFAWYDYMLQYIVVLVGLYN, the amyloid nucleation score is -0.159 ± 1.4. With MMGNNQRSPYDMDREASITF the figure was 0.64 ± 0.43; with FFGCFGLYYAMAHLLYPSLE, 1.48 ± 0.8; with SLDEVARVLCP, -0.21 ± 0.58. As for FNDFSLSYARFCINSMNRYP, the amyloid nucleation score came out at 0.968 ± 0.13. The same measure for NNAHRSVVWRYLVCFSCDFG: 6.454 ± 0.064; for LACTYLCWALC: -1.32 ± 0.86; for KEYNNPRLKLTMRRFAAKS: 0.539 ± 0.69. SWALRWYPELIET gave an amyloid nucleation score of 0.076 ± 0.29.

Take INLTNIHFCHVNFVVGALKP: the amyloid nucleation score was determined as 5.98 ± 0.079. With VIVHIWRET the figure was 3.92 ± 0.11. With YISKSCRWSRTASSNVCIFI the figure was 0.022 ± 0.33. With CAFEAGLWTSDFLNEPVYHY the figure was -0.126 ± 0.3; with AGLRVYKIKSFRLEDSVNAG, 1.49 ± 0.71; with VRVSVLLVYSGGRFSFPWVL, -0.063 ± 1.4.

In the case of MNSVGAGWFGLRCNYRAHEA, the amyloid nucleation score was determined as 0.252 ± 1.1. KGAVFVPETAPLI returned an amyloid nucleation score of 0.93 ± 1. The same measure for YYNVCHNRINLVTSWFFYRR: 0.946 ± 0.78; for RRIFRYSMNNLNVFVYNRFP: -0.277 ± 0.51; for NSHHKKGHVKRAVRLLHYPV: 0.799 ± 0.84.

In the case of DRFSYLEHDSRDRRRVE, the amyloid nucleation score result is “inactive”. PLLFKGYNAHRPNLVLTTML displayed an amyloid nucleation score of -0.143 ± 1.7. Substance SCKPGPIVSLDFVFVVYPWE had an amyloid nucleation score of 0.002 ± 0.9.

On to ELHTAEFNLNRM, for which the amyloid nucleation score worked out at 1.04 ± 0.73. The same measure for STILPIGWNFDCCITISSCV: 0.372 ± 0.28; for GHNINFGVDCGTVGRFCNTW: -0.54 ± 0.61; for LGTLMSPPTRTDFMHPRYRV: 1.51 ± 0.48. YGSLIHMIRNEGLNIGGKSA came in with an amyloid nucleation score of -0.51 ± 0.4. In the case of NFSRIKYYGSYEVFIFAGNY, the amyloid nucleation score came out at 0.398 ± 0.79.

In the case of EILFFEFFKNEFLYCHKMLC, the amyloid nucleation score amounted to 0.902 ± 0.4.

Regarding NVDFTSYMLDMM, the amyloid nucleation score is 0.042 ± 0.41. With VSPGVFMGVLLMALKFFQAK the figure was -0.303 ± 0.71; with VWISWMSRISITRLCVWGSV, 0.379 ± 0.41. The same measure for RPKSEISSNFLVDMGFYREM: 0.808 ± 0.88; for LNHRIYNLLHVILWVKQWMK: 0.164 ± 1.5; for SNWYRPTDAARLSLSYSRGG: -0.883 ± 1.1. SRDRNLVGLKLHVTVNKDVF displayed an amyloid nucleation score of -1.41 ± 2.4. Take FHMENALISLGCSSGLRQMA: the amyloid nucleation score stood at 0.803 ± 0.54. For RYVCTESESVDLSQMAVIMS, the amyloid nucleation score was 1.13 ± 0.4. Substance DVVSFSKVCVVCGLSWSASY showed an amyloid nucleation score of 6.662 ± 0.06. Substance VDHISCCVFVMAVHMELALR yielded an amyloid nucleation score of -1.07 ± 1.8. Substance VYNLFVEVVPILKNRLWFNY had an amyloid nucleation score of 4.44 ± 0.094. SQMLELVFK displayed an amyloid nucleation score of 0.818 ± 0.75. In turn, GMVSIII displayed an amyloid nucleation score of 0.276 ± 0.51. With GYCLVYLAIGGFARILGYPV the figure was -0.461 ± 1.1; with EACETLRLYELCLFKWERFR, 0.47 ± 0.58. The substance GSRSQCAPSQFLAAGTHNKF showed an amyloid nucleation score of -1.17 ± 0.84.

CPRIYGVRLKSSRLPAGVYV returned an amyloid nucleation score of 1 ± 1. The same measure for QYNTLCFGMSTGYLYLNISS: 2.83 ± 0.19.

Regarding RGINSFLMSFALCWAHWRGV, the amyloid nucleation score was -0.072 ± 0.37. The same measure for SIFADGLVVGLGPSLYSVFF: 0.175 ± 0.54.

Take VGLFVFSMSLGLAD: the amyloid nucleation score is -1.55 ± 0.51. Consider VLVSSCSTGDLVSSDPHSSV, for which the amyloid nucleation score result was “inactive”. The same measure for KWSSRCQWDWTLLGTCLAL: 0.29 ± 0.3; for RVLVDPRSSFVYSTRFDDD: 0.2 ± 0.45; for KPKVVNMVEGLRGFCGLLDL: -0.602 ± 0.94.

As for FMQLTYRMCGSPSIRVNGVL, the amyloid nucleation score was found to be 0.685 ± 0.34. The substance YGLSSGFLYADLEDVPALLW returned an amyloid nucleation score of 0.681 ± 0.45. With LVITIDARRVAVTLIYMKMR the figure was 2.37 ± 0.15; with YSLAMRLVPGPPQDENHTVN, -1.94 ± 1.8. Substance IASVWFRCFHRNRLVWSLRR gave an amyloid nucleation score of 0.214 ± 0.44.

WFMVVSRNMFCV registered an amyloid nucleation score of 0.456 ± 1.1. CPASVMAKRYCQLKMGWWGP gave an amyloid nucleation score of 0.202 ± 0.37. For LYVPCAIVGSLTRG, the amyloid nucleation score is 1.06 ± 0.66. With DSSYKWWTYFWGA the figure was -0.267 ± 0.42; with ERLGLRRFTIIISRQAQV, 0.03 ± 0.34; with SKLTYLTMPSVGEIHFWNPM, 3.44 ± 0.18. Take SILMWLNLARSLGTIYLLFV: the amyloid nucleation score was determined as 0.046 ± 0.76. The same measure for NPFYKT: 0.268 ± 0.37; for LTCEFRGTRPMMYASDPLFY: 1.14 ± 0.76. With RGVLFVAINW, the amyloid nucleation score was found to be 2.47 ± 0.31. The same measure for YIAVGV: 0.015 ± 0.62. In turn, GGKAIIQCLEW came in with an amyloid nucleation score of -0.362 ± 1.2.

RWLDYYADNARHVSQTLRRR showed an amyloid nucleation score of -0.575 ± 0.64.

Take LYYDSRASFPCISLEIERYV: the amyloid nucleation score was -0.083 ± 0.33. The same measure for FYVANVACSCAFMLPITNVR: -0.461 ± 0.73.
